According to article PMC12797016:
Values joined by “and” are separate entries in the source; they are usually repeats but may differ in a detail not shown here. Equal entries are not always repeated.

Experiments:
[1] = molecular target: LC8 (dynein light chain, DYNLL1/DYNLL2) (Homo sapiens) (UniProt P63167); assay: ITC; settings: cited from earlier work
[2] = molecular target: LC8 (dynein light chain, DYNLL1/DYNLL2) (Homo sapiens) (UniProt P63167); assay: ITC; settings: cited from earlier work; remark: listed apart in the source
[3] = molecular target: LC8 (dynein light chain, DYNLL1/DYNLL2) (Homo sapiens) (UniProt P63167); assay: ITC; settings: cited from earlier work; remark: listed apart in the source
[4] = molecular target: LC8 (dynein light chain, DYNLL1/DYNLL2) (Homo sapiens) (UniProt P63167); assay: ITC; settings: cited from earlier work; remark: listed apart in the source
[5] = molecular target: LC8 (dynein light chain, DYNLL1/DYNLL2) (Homo sapiens) (UniProt P63167); assay: ITC; settings: cited from earlier work; remark: listed apart in the source
[6] = molecular target: LC8 (dynein light chain, DYNLL1/DYNLL2) (Homo sapiens) (UniProt P63167); assay: ITC; settings: cited from earlier work; remark: listed apart in the source
[7] = molecular target: LC8 (dynein light chain, DYNLL1/DYNLL2) (Homo sapiens) (UniProt P63167); assay: ITC; settings: cited from earlier work; remark: listed apart in the source
[8] = molecular target: LC8 (dynein light chain, DYNLL1/DYNLL2) (Homo sapiens) (UniProt P63167); assay: ITC; settings: cited from earlier work; remark: listed apart in the source
[9] = molecular target: LC8 (dynein light chain, DYNLL1/DYNLL2) (Homo sapiens) (UniProt P63167); assay: ITC; settings: cited from earlier work; remark: listed apart in the source
[10] = molecular target: LC8 (dynein light chain, DYNLL1/DYNLL2) (Homo sapiens) (UniProt P63167); assay: ITC; settings: cited from earlier work; remark: listed apart in the source
[11] = molecular target: LC8 (dynein light chain, DYNLL1/DYNLL2) (Homo sapiens) (UniProt P63167); assay: ITC; settings: cited from earlier work; remark: listed apart in the source
[12] = molecular target: LC8 (dynein light chain, DYNLL1/DYNLL2) (Homo sapiens) (UniProt P63167); assay: ITC; settings: cited from earlier work; remark: listed apart in the source
[13] = molecular target: LC8 (dynein light chain, DYNLL1/DYNLL2) (Homo sapiens) (UniProt P63167); assay: ITC; settings: cited from earlier work; remark: listed apart in the source
[14] = molecular target: LC8 (dynein light chain, DYNLL1/DYNLL2) (Homo sapiens) (UniProt P63167); assay: ITC; settings: cited from earlier work; remark: listed apart in the source
[15] = molecular target: LC8 (dynein light chain, DYNLL1/DYNLL2) (Homo sapiens) (UniProt P63167); assay: ITC; settings: cited from earlier work; remark: listed apart in the source
[16] = molecular target: LC8 (dynein light chain, DYNLL1/DYNLL2) (Homo sapiens) (UniProt P63167); assay: ITC; settings: cited from earlier work; remark: listed apart in the source
[17] = molecular target: LC8 (dynein light chain, DYNLL1/DYNLL2) (Homo sapiens) (UniProt P63167); assay: ITC; settings: cited from earlier work; remark: listed apart in the source
[18] = molecular target: LC8 (dynein light chain, DYNLL1/DYNLL2) (Homo sapiens) (UniProt P63167); assay: ITC; settings: cited from earlier work; remark: listed apart in the source
[19] = molecular target: rGKAP_(655–711), LC8-binding segment of Rattus norvegicus guanylate kinase-associated protein (GKAP), His tag removed (Rattus norvegicus) (UniProt P97836); assay: dynamic light scattering; particle size of GKAP, LC8 dimer and their complex at 20 °C; W130i DLS device
[20] = molecular target: 6xHis-tagged rGKAP_(655–711) (Rattus norvegicus) (UniProt P97836); assay: BLI; 6xHis-tagged rGKAP655-711 immobilised on Ni-NTA biosensors (5 ug/mL, 90 s); LC8 dimers 3.125-50 uM, association and dissociation 90 s each; kinetic buffer 50 mM sodium phosphate, 20 mM NaCl, pH 6.0, 20 mM imidazole, 0.1% BSA, 0.02% Tween 20, 0.02% NaN3; sensors hydrated at 25 °C; global fit; BLItz
[21] = molecular target: LC8 (dynein light chain, DYNLL1/DYNLL2) (Homo sapiens) (UniProt P63167); assay: ITC; settings: cited from earlier work; remark: listed apart in the source
[22] = molecular target: LC8 (dynein light chain, DYNLL1/DYNLL2) (Homo sapiens) (UniProt P63167); assay: ITC; settings: cited from earlier work; remark: listed apart in the source

UniProt P63167, sequence (P63167 whole entry): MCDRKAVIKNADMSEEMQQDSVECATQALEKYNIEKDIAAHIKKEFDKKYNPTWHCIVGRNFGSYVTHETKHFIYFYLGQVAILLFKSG

Substance | Kd [1] | further results
53BP1 | 1 µM | Kd [2]: 0.62 µM; Kd [3]: 5.2 µM
AKAP9 | 12.4 µM | –
ALMS1 | 19.2 µM | –
AMOT | 1.2 µM | –
AMOTL1 | 1.55 µM | –
AMOTL2 | 1.98 µM | –
ASCIZ | 20 µM | Kd [4]: 15 µM; Kd [5]: 15 µM; Kd [6]: 10 µM; Kd [7]: 11 µM; Kd [8]: 7 µM; Kd [9]: 14 µM; Kd [10]: 9.3 µM; Kd [11]: 36 µM
Bim | 0.52 µM | –
CDK5RAP2 | 12.5 µM | –
CEP152 | 2.37 µM | –
CFAP91 | 0.55 µM | –
EML3 | 0.05 µM | –
GKAP | 2.4 µM | –
IC | 3 µM | –
IQUB | 3.57 µM | –
Kib1 | 0.45 µM | –
Kib2 | 4 µM | –
L-MAG | 7.3 µM | –
LCA5 | 2.6 µM and 8.1 µM | –
MAP4 | 4.42 µM | –

Substance | Kd [1] | further results
Myosin Va | 8.85 µM | –
NEK9 | 0.16 µM | –
NUP159 | 1 µM | –
OFD1 | 12.5 µM and 12.8 µM | –
Pak1 | 42.7 µM | –
Restv | 62.1 µM | –
SAO-1 | 0.5 µM | Kd [12]: 0.5 µM
Sudv | 6.45 µM | –
Swa | 0.62 µM | –
WWC1 | 4 µM | Kd [13]: 0.45 µM
WWC2 | 32.7 µM | Kd [14]: 17.6 µM
WWC3 | 5.34 µM | Kd [15]: 3.5 µM
ana2 | 12.8 µM | Kd [16]: 1.14 µM
bmf | 0.79 µM | –
dyn intermediate chain (ICTL) | 0.5 µM | Kd [17]: 8 µM; Kd [18]: 8 µM
dynein light chain LC8 (DYNLL2, DLC2), Rattus norvegicus, dimer (natural protein) | – | stoichiometry N (LC8 dimers per GKAP segment (2 : 2)) [19]: 1; Kd [20]: 0.29 µM; koff [20]: 0.0025 s⁻¹; kon [20]: 8800 M⁻¹ s⁻¹
myosin Va | 9 µM | –
nNOS | 5.41 µM and 7 µM | –
protein panoramix | 0.14 µM | Kd [21]: 0.075 µM
vp35 virus | 3.91 µM | Kd [22]: 3.91 µM
